# B1: rC5a: Human rC5a was expressed in E. coli and purified to homogeneity (protein, UniProt P01031 678-751, looked up)
# C5a anaphylatoxin: TLQKKIEEIAAKYKHSVVKKCCYDGACVNNDETCEQRAARISLGPRCIKAFTECCVVASQLRANISHKDMQLGR
# modifications: C5a anaphylatoxin recombinant, E. coli
# notes: Human rC5a was expressed in E. coli and purified to homogeneity
# Molecular target: T1, C3a Receptor (Homo sapiens, UniProt Q16581)
# T1 sequence (Q16581 1-482 F151C): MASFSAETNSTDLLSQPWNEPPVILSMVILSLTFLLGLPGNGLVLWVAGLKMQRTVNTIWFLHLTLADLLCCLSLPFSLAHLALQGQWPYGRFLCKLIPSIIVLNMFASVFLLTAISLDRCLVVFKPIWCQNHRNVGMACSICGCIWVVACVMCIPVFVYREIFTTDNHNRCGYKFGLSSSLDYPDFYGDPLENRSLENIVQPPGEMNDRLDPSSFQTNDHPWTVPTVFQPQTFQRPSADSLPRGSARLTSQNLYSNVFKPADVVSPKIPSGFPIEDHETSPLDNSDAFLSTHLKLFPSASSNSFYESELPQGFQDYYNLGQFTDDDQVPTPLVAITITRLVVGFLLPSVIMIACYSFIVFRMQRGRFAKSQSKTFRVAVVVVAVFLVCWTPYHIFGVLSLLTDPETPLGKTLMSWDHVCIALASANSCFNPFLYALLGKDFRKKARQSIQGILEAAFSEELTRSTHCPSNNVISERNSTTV
# Assay: Electrophysiological response (Ca2+ mediated chloride currents, two electrode voltage clamp) of Xenopus oocytes injected with C3a Receptor cRNA
# Type: cell-based
# Set-up: cDNA encoding a complete orphan GPCR of 482 amino acids; expressed in transfected cells; host or cells: Xenopus laevis oocytes microinjected with cRNA, with or without U937 total RNA
# Conditions: for electrophysiological response of oocytes expressing C3a Receptor: oocytes co-injected with C3a Receptor cRNA (10 ng) and U937 RNA (25 ng), ligands 10 nM; for electrophysiological response of oocytes injected with C3a Receptor cRNA or U937 RNA alone: 10 nM ligand
# Procedure: (A) Electrophysiological response of Xenopus oocytes injected with cRNA for C3a Receptor (10 ng), total U937 RNA (25 ng), or a mixture of C3a Receptor (10 ng) and U937 RNA (25 ng) to 10 nM rC5a, 10 nM C3a analogue peptide, 10 nM platelet activating factor (PAF), 10 nM fMetLeuPhe. Inset, represents typical response of oocytes co-injected with C3a Receptor cRNA+U937 RNA to 10 nM C3a. (B) Electrophysiological response of oocytes injected with C5a-R cRNA (10 ng), U937 RNA (25 ng) or a mixture of C5a-R and U937 RNA, to 10 nM rC5a or 10 nM C3a analogue peptide. […] Calcium mobilization by Fura 2 loaded cells expressing C5a receptor (FIGS. 4A & 4C) or C3a Receptor (FIGS. 4B & 4D) in response to rC5a (10 nM, FIG. 4A or 100 nM, FIG. 4B) or C3a analogue peptide (1 uM, FIGS. 4C & 4D).
# Capped cRNA transcripts were generated from linearized C3a Receptor and C5a-R plasmid DNA as previously described (Kumar, C. S., et al (1989) J. Biol. Chem. 264, 17939-17946) and suspended in sterile water at a concentration of 0.2 μg/μl. Ovarian lobes were surgically removed from adult female Xenopus laevis frogs and defolliculated Stage V oocytes were harvested by manual dissection (Smith, L. D., et al (1991) Methods in Cell Biology, 36, 45-54. Edited by B. K. Kay and H. B. Peng, Academic Press Inc., New York.). Oocytes were microinjected with C3a Receptor or C5a-R cRNA transcripts (10 ng/oocyte) with or without U937 total RNA (25 ng/oocyte) in a 50 nl volume using a Drummond microinjection apparatus and maintained in modified Barth's saline (Power, C. A., et al (1995) J. Biol. Chem., 270,19495-19500 ) at 18° C. Electrophysiological recordings from an average of 10 oocytes were made 48 h later at room temperature using the two electrode voltage clamp (Warner Instruments) technique. Membrane potentials were routinely clamped at -60 mV. Results represent average response determined in three separate experiments.
# The chemotactic receptors for C5a and the fMLP-R have previously been functionally expressed in Xenopus laevis oocytes (Kroll, B., et al (1991) FEBS Lett. 291, 208-210; Murphy, P. M. & McDermott, D. (1991) J Biol. Chem. 266, 12560-12567; Murphy, P. M., Gallin, E. K., and Tiffany, H. L. (1990) J Immunol. 145, 2227-2234; Schultz, P., et al (1992) Cellular Signalling 4, 153-161) and, unlike all other GPCRs tested in this system, injection of cRNA for the cloned chemotactic receptors alone is insufficient to stimulate signal transduction in response to ligand binding (Kroll, B., et al (1991) FEBS Lett. 291, 208-210; Murphy, P. M. & McDermott, D. (1991) J Biol. Chem. 266, 12560-12567). Functional expression of both of these chemotactic receptors, as monitored by induction of Ca^2+ mediated chloride currents, requires the co-injection of a complimentary human factor which can be supplied by total RNA from myeloid or liver cells (Kroll, B., et al (1991) FEBS Lett. 291, 208-210; Murphy, P. M. & McDermott, D. (1991) J Biol. Chem. 266, 12560-12567). The co-factor is required for receptor-mediated signal transduction but not for expression of the C5a-R or fMLF-R on the surface of the oocytes (Murphy, P. M., et al (1990) J Immunol. 145, 2227-2234). […] Xenopus oocytes were used to functionally characterize C3a Receptor. […] Like the C5a-R and the fMLF-R, the response was dependent on the co-injection of a cofactor present in total HL-60 or U937 RNA. […] (FIG. 3B). Both the C5a-R as well as C3a Receptor elicited in oocytes a promiscuous response to the two anaphylatoxins.
molecule,measurement,setting,value
"C3a: C3a was purchased from Advanced Research Technologies, San Diego; anaphylatoxin; radioiodinated for binding",electrophysiological response of oocytes expressing C3a Receptor,,respond
same,electrophysiological response of oocytes expressing C3a Receptor,listed as native ligand,elicited similar responses
"WWGKKYRASKLGLAR [C3a analogue synthetic peptide, reference compound]",electrophysiological response of oocytes injected with C3a Receptor cRNA or U937 RNA alone,,did not elicit any response
same,electrophysiological response of oocytes expressing C3a Receptor,,respond
same,electrophysiological response of oocytes expressing C3a Receptor,listed as C3a carboxy-terminal analog synthetic peptide,elicited an electrophysiological response
B1,electrophysiological response of oocytes injected with C3a Receptor cRNA or U937 RNA alone,,did not elicit any response
same,electrophysiological response of oocytes expressing C3a Receptor,listed as C5a,respond
